From the nanobody polyreactivity screen of Harvey et al. (2022)

Assay: yeast display, Sf9 membrane polyspecificity reagent, FACS + sequencing; frameworks hold sequencing errors
Outline: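 Galactose induction of a Saccharomyces cerevisiae BJ5465 synthetic nanobody display library ran 36–48 hours. The cells were then stained for 1 hour at 4 °C with 10% biotinylated, detergent-solubilized Sf9 membrane reagent, pulled down on streptavidin microbeads and FACS-sorted into low and high (top ~1%) gates on expression and reagent-binding fluorescence. Labels for polyreactivity follow the gate of origin.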

For “QVQLVESGGGLDQAGGSLRLSCAASGITFKSYAMGWYRQAPGKERELVAAITYRSGSTYYADSVKGRFTISRDNAKNTVYLQMNSLKPEDTAVYYCAVGGKFQIQTYYQRYNYWGQGTQVTVSS”, which “polyreactivity (PSR sort gate)” value is on record?
Its value is “high polyreactivity”.

Which “polyreactivity (PSR sort gate)” value does the source give for “QVQLVESGGGLVQAGGSLRLSCAATGITFRYNAMGWYRLAPGKERELVAAITFSGGSTYYADSVKGRFTISRDNAKNTVYLQMNSLKPEDTAVYYCAKLGSTSSRGNYDYWGQGTQVTVSS” here?
The value was “low polyreactivity”.

With “QVQLLESGGGLVQAGGSLRLSCAASGSIFDYNAMGWYRQAPGNERELVADITISDDSTYYADSVKGRFTISRDNAKNTVNLQMNSRQPEDTAVYYCAADIKYYWYYYYWAYAYDYWGQGTQVTVSS” as the sequence, how does the “polyreactivity (PSR sort gate)” value read?
The value was “high polyreactivity”.

With “QVQLVESGGGLVQAGGSLRLSCAASGFTFPRYAMGWYRQAPGKERELVAAITVGGGRTYYADSVKGRFTISRDNAKNTVYLQMNSLKPEDTAVYYCAADSHASTYDYWGQGTQVTVSS” as the sequence, how does the “polyreactivity (PSR sort gate)” value read?
Its value is “low polyreactivity”.

For “QVQLVESGGGLVQAGGSLRLSCAASGFIIDYYAKGWYRQAPGKERELVASITDSTTYYADSVKGRFTISRDNAKNTVYLQMNSLKPEDTAVYYCNARGGYAYVLYDYWGQGTQVTVSS”, which “polyreactivity (PSR sort gate)” value is on record?
The value was “low polyreactivity”.

For “QVQLVESGGGLVQAGGSHRLSCAASGRIFVKYAMGWYRQAPGKERELVAAITKSGSSTYYADSVKGRFTISRDNAKITVYLQMNSLKPEDTAVYYCAALTISRSRTGYYWGQGTQVTVSS”, which “polyreactivity (PSR sort gate)” value is on record?
Its value is “low polyreactivity”.

With “QVQLVESGGGLVQAGGSLRLSCAASGIISTYYVMGWYRQAPGKERELVAAITGGDTSTYYADSVKGRFTISRDNAKKTVYLQMNSLKPEDTADYYCAKEYYYARGARYDYWGQGTQVTVSS” as the sequence, how does the “polyreactivity (PSR sort gate)” value read?
Its value is “low polyreactivity”.

For “QVQLVESGGGLVQAGGSLRLSCSASRSTFYGNAMGWYRQAPGKERELVAAISSGDITYYADSVKGRFTISRDNAKNTVYLQMNSLKPEDTAVYYCATDYGYSWYDYWGQGTQVTVSS”, which “polyreactivity (PSR sort gate)” value is on record?
The value was “low polyreactivity”.

With “QVQLVESGGGLVQAGGSLRLSCAASGRTFKPYAMGWYRQAPGKERELVAAISTRGGSTYYADSVKGRFTISRDNAKNTVYLQMNSLKPEDTAVYYCAATQPGRDYDYWGQGTQVTVSS” as the sequence, how does the “polyreactivity (PSR sort gate)” value read?
Its value is “low polyreactivity”.

For “QVQLVESGGGLVQAGGSLRLSCAASGRIFGYNAMGWYRQAPGKERELVAAIRYSGGRTYYADSVKGRFTISRDNAKNTVYLQMNSLKREDTAVYYCAATAFDKLKVWYYYWGQGTQVTVSS”, which “polyreactivity (PSR sort gate)” value is on record?
Its value is “high polyreactivity”.

With “QVQLVESGGGLVQAGGSLRLSCAASGSIIWRNAMGWYRQAPGKERELVAAITWSRGSTFYADSVKGRFTISRDNAKNTVYLQMNSLKAEDTAVYYCAAYGGRRFDYWGQGTQVTVSS” as the sequence, how does the “polyreactivity (PSR sort gate)” value read?
The value was “low polyreactivity”.

With “QVQLVESGGGLVQAGGSLRLSCAASGRTFYYYAMGWYRQAPGKERELVAAISSRGGSTYYADSVKGRFTISRDNAKNTVYLQMNSLKPEDTAVYYCAAERYFVLYRYYSYAYYYWGQGTQVTVSS” as the sequence, how does the “polyreactivity (PSR sort gate)” value read?
The value was “high polyreactivity”.

Which “polyreactivity (PSR sort gate)” value does the source give for “QVLLVESGGGLVQAGGILRLSCAASGNILGYNAMGWSRQAPGKERELVAAISWIGGSTYYADSVKGRFTISRDNAKNTVYLQMNSLKQEDTAVYYCASRYRTYFTYEYWGQVTQVTVSS” here?
The value was “low polyreactivity”.

For “QVQLVESGGGLVQAGGSLRLSCAASGIIFRRYAMGWYRQAPGKERELVAAISSSGGNTYYADSVKGRFTISRDNAKNTVYLQMYSLKPEDTAVYYCAARSQIYYRYRSYGYWGQGTQVTVSS”, which “polyreactivity (PSR sort gate)” value is on record?
The value was “high polyreactivity”.

Which “polyreactivity (PSR sort gate)” value does the source give for “QVQLVESGGGLVQAGGSLLLSCAASGSIFDFYGMGWDRQAPGKERELVATITGTGGGTYYADSVKGRFTISRDNAKNTVYLKMNSLKPEDTAVYYCAADYPYGYWRGLFYYWGQGTQVTVSS” here?
The value was “low polyreactivity”.

For “QVQLVESGGGLVQAGGSLRLSCAASGRIFAYYAMGWYRQAPGKERELVAAISSGGSTKYADSVKGRFTISRDNAKNTVYLQMNSLKPEDTAVYYCAAKYGYRKYRGFQNGGDYWGQGTQVNVSS”, which “polyreactivity (PSR sort gate)” value is on record?
Its value is “high polyreactivity”.

With “QVQLAESGGGLVQAGGSLRLICAASGFTFSAYAMGWYRQAPGKERELVAAINTSGGSTYYADSVKGRFTISRDNAKNTVYLQMKSLKPEDTAVYYCASKYASLDRRRRKYDYWGQGTQVTVSS” as the sequence, how does the “polyreactivity (PSR sort gate)” value read?
The value was “high polyreactivity”.

For “QVQLVESGGCLVQAGGTLRLSCAASGSILNSYALGWYRQAPGKERELVAAIDNRGGSTHYADSVKGRFTISRDNAKNTVYLQMNSLKPEDTAVYYCAKRFYGSVGYWRYYYWGQGTQVTVSS”, which “polyreactivity (PSR sort gate)” value is on record?
The value was “low polyreactivity”.

Which “polyreactivity (PSR sort gate)” value does the source give for “QVQLVESGGGLVQAGGSLRLSCAASGFIFYSYDMGWYRQAPGKERELVAANDSRGVNTYYADSVKGRFTISRDNAKNTVYLQMNSLKPEDTAVYYCAAQASSQIDYYGGHYGYWGQGTQVTVSS” here?
The value was “low polyreactivity”.

For “QVQLVESGGGLVQAGGSLRLSCAASGRTFEKYVMGWYRQAPGKERELVASISKRGGSTYYADSVKGRFTISRDNAKNTVYLQMNSLKPEDTAVYYCNKDSRASPYGYWGQGTQVTVSS”, which “polyreactivity (PSR sort gate)” value is on record?
Its value is “high polyreactivity”.

For “QVQLVESGGGLVQAGGSLRLSCAASGRTFNAYTMGSYRPAPGKERELVAAITSSGGNTYYADSVKGRFTISRDNAKNTVYLQMNSLKPEDTAVYYCNTVYLYGTHDYWGQGTQVTVSS”, which “polyreactivity (PSR sort gate)” value is on record?
The value was “low polyreactivity”.

For “QVQLVDSGGGLVQAGGSLRLSCAASGSTFSDSPMGGYRQAPGKERELVAGITGGGGTYYADSVKGRFTISRDNAKNTVYLQMNSLKPEDTAVYYCAAGYGRRIRYGSEYDYWGQGTQVTVSS”, which “polyreactivity (PSR sort gate)” value is on record?
The value was “low polyreactivity”.
